Test results: paper PMC4650713, “Crystal structure of Bax bound to the BH3 peptide of Bim identifies important contacts for interaction” (Cell Death & Disease, 2015)

How the values were obtained:
[1] = target: the molecule itself; experiment: crystal structure; BidBH3, BimBH3mini or BidBH3mini with core/latch dimers of BaxI66AΔC21, BaxΔC26 or BaxΔC28; threefold molar excess of peptide; about 1 M tri-sodium citrate, 0.1 M sodium cacodylate pH 6.5, 277 K
[2] = target: the molecule itself; experiment: crystal structure; BimBH3:BaxΔC26; core/latch dimer induced by peptide, purified by SEC, threefold molar excess of peptide added; 0.1 M sodium bicine pH 9.0, 20% PEG6000, 277 K

B1: BaxI66AΔC21 (domain or fragment, UniProt Q07812 1-171, looked up)
chain: MDGSGEQPRGGGPTSSEQIMKTGALLLQGFIQDRAGRMGGEAPELALDPVPQDASTKKLSESLKRAGDELDSNMELQRMIAAVDTDSPREVFFRVAADMFSDGNFNWGRVVALFYFASKLVLKALSTKVPELIRTIMGWTLDFLRERLLGWIQDQGGWDGLLSYFGTPTWQ
notes: BaxΔC21 (Bax truncated at the C terminus by 21 amino acids, with C62S and C126S) with I66A; Called a BaxΔC21 mutant; In the crystal it stands as a core/latch dimer; also called BaxΔC21 mutant I66A
stoichiometry N [1]: 2

B2: BaxΔC26 (domain or fragment)
chain: MDGSGEQPRGGGPTSSEQIMKTGALLLQGFIQDRAGRMGGEAPELALDPVPQDASTKKLSESLKRIGDELDSNMELQRMIAAVDTDSPREVFFRVAADMFSDGNFNWGRVVALFYFASKLVLKALSTKVPELIRTIMGWTLDFLRERLLGWIQDQGGWDGLLSYFGSS
notes: Bax truncated at the C terminus by 26 amino acids, with C62S and C126S; C terminus G166; two extra residues (Ser–Ser) at the C terminus after intein digestion, a cloning artefact; In the crystals it stands as a domain-swapped core/latch dimer, each chain with one BH3 peptide; also called Bax C62S C126S truncated at the C terminus by 26 amino acids
stoichiometry N [2]: 2

B3: BaxΔC28 (domain or fragment)
chain: MDGSGEQPRGGGPTSSEQIMKTGALLLQGFIQDRAGRMGGEAPELALDPVPQDASTKKLSESLKRIGDELDSNMELQRMIAAVDTDSPREVFFRVAADMFSDGNFNWGRVVALFYFASKLVLKALSTKVPELIRTIMGWTLDFLRERLLGWIQDQGGWDGLLSYSS
notes: Bax truncated at the C terminus by 28 amino acids, with C62S and C126S; lacks F165; two extra residues (Ser–Ser) at the C terminus after intein digestion, a cloning artefact; In the crystal it stands as a core/latch dimer; also called Bax C62S C126S truncated at the C terminus by 28 amino acids
stoichiometry N [1]: 2
